B1: HDV Ribozyme (parent)
chain: GGCCGGCAUGGUCCCAGCCUCCUCGCUGGCGCCGGCUGGGCAACAUUCCGAGGGGACCGUCCCCUCGGUAAUGGCGAAUGGGACCCA

Variants of: B1
Assay: self-cleavage, relative activity (ratio to wild type); higher = more cleavage; co-transcriptional

Variant	self-cleavage
CGCCGGCCUGGUCCCAGCCUCCUCGCUGGCGCCGGCUGGGCAACAUUCCGAGGGGACCGUCCCCUCGGUAAUGGCGAAUGGGACCCA	0
CGCCGGCUUGGUCCCAGCCUCCUCGCUGGCGCCGGCUGGGCAACAUUCCGAGGGGACCGUCCCCUCGGUAAUGGCGAAUGGGACCCA	0.0978
CGCCGGCAUGGUCCCAGCCUCCUCGCUGGCGCCGGCUGGGCAACAUUCCGAGGGGACCGUCCCCUCGGUAAUGGCGAAUGGGACCCU	0.104
CGCCGGCAUGGUACCAGCCUCCUCGCUGGCGCCGGCUGGGCAACAUUCCGAGGGGACCGUCCCCUCGGUAAUGGCGAAUGGGACCCA	0.0386
AGCCGGCAUGGUCCCAGCCUCCUCGCUGGCGCCGGCUGGGCAACAUUCCGAGGGGACCGUCCCCUCGGUAAUGGCGAACGGGACCCA	0.119
AGCCGGCAUGGUCCCAGCCUCCUCGCUGGCGCCGGCUGGGCAACAUUCCGAGGGGACCGUCCCCUCGGUAAUGGCGAAAGGGACCCA	0.208
CGCCGGCAUGGUCCCCGCCUCCUCGCUGGCGCCGGCUGGGCAACAUUCCGAGGGGACCGUCCCCUCGGUAAUGGCGAAUGGGACCCA	0.128
CGCCGGCAUGGUCCCUGCCUCCUCGCUGGCGCCGGCUGGGCAACAUUCCGAGGGGACCGUCCCCUCGGUAAUGGCGAAUGGGACCCA	0.111
CGCGGGCAUGGUCCCAGCCUCCUCGCUGGCGCCGGCUGGGCAACAUUCCGAGGGGACCGUCCCCUCGGUAAUGGCGAAUGGGACCCA	0
CGCCGGCAUGGUCCCAGCCUCCUCGCUGGCGCCGGCUGGGCAACGUUCCGAGGGGACCGUCCCCUCGGUAAUGGCGAAUGGGACCCA	0.192
CGCCGGCAUGGUCCCAGCCUCCUCGCUGGCGCCGGCUGGGCAACUUUCCGAGGGGACCGUCCCCUCGGUAAUGGCGAAUGGGACCCA	0
CGCCGGCAUGGUCCCAGCCUCCUCGCUGGCGCCGGCUGGGCCACAUUCCGAGGGGACCGUCCCCUCGGUAAUGGCGAAUGGGACCCA	0.0639
CGCCGGCAUGGUCCCAGCCUCCUCGCUGGCGCCGGCUGGGCAACAUUCCGAGGGGACCGUCCCCUCGGUAAUGGCGGAUGGGACCCA	0
CGCCGGCAUGGUCCCAGCCUCCUCGCUGGCGCCGGCUGGGCAACAUUCCGAGGGGACCGUCCCCUCGGUAAUGGCGCAUGGGACCCA	0
CGCCGGCAUGGUCCGAGCCUCCUCGCUGGCGCCGGCUGGGCAACAUUCCGAGGGGACCGUCCCCUCGGUAAUGGCGAAUGGGACCCA	0.166
CGCCGGCAUGGUCCAAGCCUCCUCGCUGGCGCCGGCUGGGCAACAUUCCGAGGGGACCGUCCCCUCGGUAAUGGCGAAUGGGACCCA	0

Variant	self-cleavage
CGCCGGCAUGGUCCCAGCCUCCUCGCUGGCGCCGGCUGGGCAACAUUCCGAGGGGACCGUCCCCUCGGUCAUGGCGAAUGGGACCCA	0.185
CGCCGGCAUGGUCCCAGCGUCCUCGCUGGCGCCGGCUGGGCAACAUUCCGAGGGGACCGUCCCCUCGGUAAUGGCGAAUGGGACCCA	0
CGCCGGCAUGGUCCCAGCAUCCUCGCUGGCGCCGGCUGGGCAACAUUCCGAGGGGACCGUCCCCUCGGUAAUGGCGAAUGGGACCCA	0.201
CGCCGGCAUGGUCCCAGCCUCCUCGCUGGCGCCGGCUGGGCAACAUUCCGAGGGGUCCGUCCCCUCGGUAAUGGCGAAUGGGACCCA	0.17
CGCCGGCAUGGUCACAGCCUCCUCGCUGGCGCCGGCUGGGCAACAUUCCGAGGGGACCGUCCCCUCGGUAAUGGCGAAUGGGACCCA	0.0811
CGCCGGCAUGGUCGCAGCCUCCUCGCUGGCGCCGGCUGGGCAACAUUCCGAGGGGACCGUCCCCUCGGUAAUGGCGAAUGGGACCCA	0.0615
CGGCGGCAUGGUCCCAGCCUCCUCGCUGGCGCCGGCUGGGCAACAUUCCGAGGGGACCGUCCCCUCGGUAAUGGCGAAUGGGACCCA	0.443
CGCCGGCAUGGUCCCAGCCUCCUCGCUGGCGCCGGCUGGGCAACAUUCCGCGGGGACCGUCCCCUCGGUAAUGGCGAAUGGGACCCA	0.133
CGCCGGCAUGGUCCCAGCCUCCUCGCUGGCGCCGGCUGGGCAACAUUCCGGGGGGACCGUCCCCUCGGUAAUGGCGAAUGGGACCCA	0.396
CGCCGGCAUGGUCCCAGCCUCCUCGCUGGCGCCGGCUGGGCACCAUUCCGAGGGGACCGUCCCCUCGGUAAUGGCGAAUGGGACCCA	0.332
CGCCGGCAUGGUCCCAGCCUCCUCGCUGGCGCCGGCUGGGCAUCAUUCCGAGGGGACCGUCCCCUCGGUAAUGGCGAAUGGGACCCA	0.135
CGCCGGCAUGGUCCCAGCCUCCUCGCUGGCGCCGGCUGGGCAACAUUCCGAGGGGACCGUCCCCUCGGUAAUGGCGAGUGGGACCCA	0.0573
CGCCGGCAUGGUCCCAGCCUCCUCGCUGGCGCCGGCUGGGCAACAUUCCGAGGGGACCGUCCCCUCGGUACUGGCGAAUGGGACCCA	0.256
CGCCGGCAUGGUCCCAGCCUCCUCGCUGGCGCCGGCUGGGCAACAUUCCGAGGGGACCGUCCCCUCGGUAGUGGCGAAUGGGACCCA	0
CGCCGGCAUGGUCCCAGCCUCCUCGCUGGCGCCGGCUGGGCAACAUUCCGAGGGGACCGUCCCCUCGGUAAUGGCGAAUGGGUCCCA	0.252
CGCCGGCAUGGUCCCAGCCUCCUCGCUGGCGCCGGCUGGGCAACAUUCCGAGGGGACCGUCCCCUCGGUAAUGGCGAAUGGGGCCCA	0.151
